Results on four molecules are retold here after paper PMC5681996.

In data set [1] the target is T1, TDP-43 WT (UniProt Q13148 1-414). Put plainly: EMSA.
The target of data set [2] is T1, TDP-43 WT. Description: CD.
The target in data set [3] is T1, TDP-43 WT. Description: CD. This is another data set of the same source.

T1 sequence (Q13148 whole entry): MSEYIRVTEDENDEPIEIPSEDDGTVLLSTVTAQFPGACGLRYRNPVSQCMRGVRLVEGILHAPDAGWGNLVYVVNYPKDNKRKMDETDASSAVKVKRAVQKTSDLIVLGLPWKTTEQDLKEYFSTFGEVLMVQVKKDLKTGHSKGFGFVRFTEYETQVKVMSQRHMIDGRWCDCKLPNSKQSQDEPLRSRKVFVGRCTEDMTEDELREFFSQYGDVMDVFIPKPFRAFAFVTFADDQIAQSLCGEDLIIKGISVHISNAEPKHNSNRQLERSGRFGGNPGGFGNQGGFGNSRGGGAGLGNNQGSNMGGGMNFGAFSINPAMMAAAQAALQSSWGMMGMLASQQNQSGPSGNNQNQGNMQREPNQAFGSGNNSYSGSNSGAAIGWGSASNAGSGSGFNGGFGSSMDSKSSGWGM

B1: (UG)8 (ssRNA)
RNA: UGUGUGUGUGUGUGUG
As to B1, in the data set with TDP-43 WT [1], the binding result is “binds”.

B2: (UGGAA)4 (ssRNA)
RNA: UGGAAUGGAAUGGAAUGGAA
Regarding B2, the binding result in the data set with TDP-43 WT [2] is “binds”.

B3: (UG)4 (ssRNA)
RNA: UGUGUGUG
On to B3, for which the binding result in the data set with TDP-43 WT [3] is reported as “binds”.

B4: (UGGAA)8 (ssRNA)
RNA: UGGAAUGGAAUGGAAUGGAAUGGAAUGGAAUGGAAUGGAA
Consider B4, for which the binding result in the data set with TDP-43 WT [1] is “binds”.
